Where no end group is shown, it is not given here.
Key:
Human TROP2 Full length = target: T1, Human TROP2 Full length (human, UniProt P09758 31-323); assay: cell-based or functional assay
T1 sequence: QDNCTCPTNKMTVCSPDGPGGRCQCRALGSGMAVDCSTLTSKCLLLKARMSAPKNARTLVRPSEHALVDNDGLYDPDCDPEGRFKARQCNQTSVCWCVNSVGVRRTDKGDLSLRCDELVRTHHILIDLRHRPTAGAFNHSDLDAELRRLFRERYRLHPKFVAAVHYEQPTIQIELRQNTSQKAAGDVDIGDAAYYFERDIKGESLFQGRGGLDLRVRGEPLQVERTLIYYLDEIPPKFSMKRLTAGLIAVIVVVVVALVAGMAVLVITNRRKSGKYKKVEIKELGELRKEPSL

Cyno TROP2 Full length = target: T2, Cyno TROP2 Full length (cynomolgus monkey, UniProt P09758 31-323 (human entry)); assay: cell-based or functional assay
T2 chain: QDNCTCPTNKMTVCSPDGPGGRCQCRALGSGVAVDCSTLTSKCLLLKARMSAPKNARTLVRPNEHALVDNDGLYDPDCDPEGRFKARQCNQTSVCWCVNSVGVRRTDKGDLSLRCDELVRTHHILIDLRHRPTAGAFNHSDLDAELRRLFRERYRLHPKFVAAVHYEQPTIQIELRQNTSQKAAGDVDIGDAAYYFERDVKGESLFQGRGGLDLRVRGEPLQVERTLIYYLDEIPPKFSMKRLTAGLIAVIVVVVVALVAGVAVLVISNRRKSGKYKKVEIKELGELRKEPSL

[1] = target: T3, Human TROP2 ECD (31-274 AA), biotinylated (human, UniProt P09758 31-274, biotinylated (site not stated)); assay: ELISA on immobilized TROP2
T3 construct: also called tumor-associated calcium signal transducer 2; Human TROP2-biotin
T3 sequence: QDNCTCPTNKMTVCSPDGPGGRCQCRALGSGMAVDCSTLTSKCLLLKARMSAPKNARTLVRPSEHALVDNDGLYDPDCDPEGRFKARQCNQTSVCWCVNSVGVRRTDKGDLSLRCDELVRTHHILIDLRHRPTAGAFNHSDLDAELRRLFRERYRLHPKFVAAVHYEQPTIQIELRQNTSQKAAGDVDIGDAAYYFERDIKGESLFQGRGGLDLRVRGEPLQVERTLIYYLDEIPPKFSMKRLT

[2] = target: T3, Human TROP2 ECD (31-274 AA), …; assay: ELISA on immobilized TROP2; remark: listed apart in the source
[3] = target: T3, Human TROP2 ECD (31-274 AA), …; assay: ELISA, ratio of EC50 to that of TBD-1 wt
[4] = target: T3, Human TROP2 ECD (31-274 AA), …; assay: ELISA, biotinylated TROP2 ECD on neutravidin plate, Fab titrated
[5] = target: T3, Human TROP2 ECD (31-274 AA), …; assay: BLI (Octet), dissociation half-life from biotinylated human TROP2 ECD
[6] = target: T3, Human TROP2 ECD (31-274 AA), …; assay: BLI (Octet), biotinylated human TROP2 ECD on SAX sensor, Fab 6.25-50 nM
[7] = target: T3, Human TROP2 ECD (31-274 AA), …; assay: ELISA: biotinylated TROP2 captured on neutravidin plate, Fab titrated, HRP secondary antibody
Peptide-68 = target: T4, Peptide-68 (cysteine pairing not given here; also: biotinylated, site not given here); assay: ELISA, TCE on captured biotin-peptide
T4 construct: mask peptide for the CD3 scFv
T4 peptide: DWCWYSPDNDGLCD

Peptide-69 = target: T5, Peptide-69 (cysteine pairing not given here; also: biotinylated, site not given here); assay: ELISA, TCE on captured biotin-peptide
T5 construct: mask peptide for the CD3 scFv
T5 peptide: SECLVDLQSDPCYW

Peptide-70 = target: T6, Peptide-70 (cysteine pairing not given here; also: biotinylated, site not given here); assay: ELISA, TCE on captured biotin-peptide
T6 construct: mask peptide for the CD3 scFv
T6 peptide: YLCGPDGDETLACY

Peptide-71 = target: T7, Peptide-71 (cysteine pairing not given here; also: biotinylated, site not given here); assay: ELISA, TCE on captured biotin-peptide
T7 construct: mask peptide for the CD3 scFv
T7 peptide: VDCGPDGDESILCY

B1: PC-47 (bispecific antibody)
light: GGVDFCGLYHWPICYQGGGGSGGGGGSGGGGSGGASSGAGGSDIQLTQSPSSLSASVGDRVSITCKASQDVSIAVAWYQQKPGKAPKLLIYSASYRYTGVPDRFSGSGSGTDFTLTISSLQPEDFAVYYCQQHYITPLTFGAGTKVEIKRTVAAPSVFIFPPSDEQLKSGTASVVCLLNNFYPREAKVQWKVDNALQSGNSQESVTEQDSKDSTYSLSSTLTLSKADYEKHKVYACEVTHQGLSSPVTKSFNRGEC
heavy: not shown
Q: For B1, which “H292 Cytotoxicity EC50 (pM)” value (Human TROP2 Full length) is on record?
A: > 100000 pM

Q: What about the “CyTROP2 HEK293 EC50 (pM)” value (Cyno TROP2 Full length) of the same binder?
A: 17300 pM

B2: PC-31 (bispecific antibody)
light: GGVDFCGLYHWPICYQGGGGSGGLSGRSDAGSPLGLAGSGGSDIQLTQSPSSLSASVGDRVSITCKASQDVSIAVAWYQQKPGKAPKLLIYSASYRYTGVPDRFSGSGSGTDFTLTISSLQPEDFAVYYCQQHYITPLTFGAGTKVEIKRTVAAPSVFIFPPSDEQLKSGTASVVCLLNNFYPREAKVQWKVDNALQSGNSQESVTEQDSKDSTYSLSSTLTLSKADYEKHKVYACEVTHQGLSSPVTKSFNRGEC
heavy: not shown
Q: Which “H292 Cytotoxicity EC50 (pM)” value (Human TROP2 Full length) does the source give for B2 here?
A: > 100000 pM

Q: And the “CyTROP2 HEK293 EC50 (pM)” value (Cyno TROP2 Full length)?
A: > 100000 pM

B3: PC-32 (bispecific antibody)
light: GGVDFCGLYHWPICYQGGGGSGGLSGRSDAGSPLGLAGSGGSDIQLTQSPSSLSASVGDRVSITCKASQDVSIAVAWYQQKPGKAPKLLIYSASYRYTGVPDRFSGSGSGTDFTLTISSLQPEDFAVYYCQQHYITPLTFGAGTKVEIKRTVAAPSVFIFPPSDEQLKSGTASVVCLLNNFYPREAKVQWKVDNALQSGNSQESVTEQDSKDSTYSLSSTLTLSKADYEKHKVYACEVTHQGLSSPVTKSFNRGEC
heavy: not shown
Q: How did the “H292 Cytotoxicity EC50 (pM)” value (Human TROP2 Full length) turn out when B3 was run?
A: 28100 pM

Q: What about the “CyTROP2 HEK293 EC50 (pM)” value (Cyno TROP2 Full length) of the same binder?
A: 35900 pM

B4: TCE-4 (bispecific antibody)
light: not shown
heavy: QVQLQQSGSELKKPGASVKVSCKASGYTFTNYGMNWVKQAPGQGLKWMGWINTYTGEPTYTDDFKGRFAFSLDTSVSTAYLQISSLKADDTAVYFCARGGFGSSYWYADVWGQGSLVTVSSASTKGPSVFPLAPSSKSTSGGTAALGCLVKDYFPEPVTVSWNSGALTSGVHTFPAVLQSSGLYSLSSVVTVPSSSLGTQTYICNVNHKPSNTKVDKKVEPKSC
Q: B4 was tested. Which EC50 [1] did it give?
A: 7.29 nM

Q: And the EC50 [2]?
A: 2.5 nM

B5: TBD-21 (anti-TROP2 Fab, HC F108A) (Fab, V domains shown)
VH: QVQLQQSGSELKKPGASVKVSCKASGYTFTNYGMNWVKQAPGQGLKWMGWINTYTGEPTYTDDFKGRFAFSLDTSVSTAYLQISSLKADDTAVYFCARGGFGSSYWYADVWGQGSLVTVSS
VL: DIQLTQSPSSLSASVGDRVSITCKASQDVSIAVAWYQQKPGKAPKLLIYSASYRYTGVPDRFSGSGSGTDFTLTISSLQPEDFAVYYCQQHYITPLTFGAGTKVEIKR
notes: also called TBD-21 (HC F108A mutant)
Q: Which results are given for B5?
A: Fold shift in EC50 relative to wt [3]: 20.5 fold; EC50 [4]: 4.1 nM; t1/2 [5]: 8 min; Kd [6]: 4.76 nM; EC50 [7]: 4.11 nM

B6: TBD-23 (anti-TROP2 Fab, HC V110A) (Fab, V domains shown)
VH: QVQLQQSGSELKKPGASVKVSCKASGYTFTNYGMNWVKQAPGQGLKWMGWINTYTGEPTYTDDFKGRFAFSLDTSVSTAYLQISSLKADDTAVYFCARGGFGSSYWYFDAWGQGSLVTVSS
VL: DIQLTQSPSSLSASVGDRVSITCKASQDVSIAVAWYQQKPGKAPKLLIYSASYRYTGVPDRFSGSGSGTDFTLTISSLQPEDFAVYYCQQHYITPLTFGAGTKVEIKR
Q: For B6, which “Fold shift in EC50 relative to wt” value [3] is on record?
A: 1 fold

Q: And the EC50 [4]?
A: 0.2 nM

Q: What about the “t1/2” value [5] of the same binder?
A: 34 min

Q: And the Kd [6]?
A: 0.401 nM

Q: And the EC50 [7]?
A: 0.236 nM

B7: TBD-22 (anti-TROP2 Fab, HC D109A) (Fab, V domains shown)
VH: QVQLQQSGSELKKPGASVKVSCKASGYTFTNYGMNWVKQAPGQGLKWMGWINTYTGEPTYTDDFKGRFAFSLDTSVSTAYLQISSLKADDTAVYFCARGGFGSSYWYFAVWGQGSLVTVSS
VL: DIQLTQSPSSLSASVGDRVSITCKASQDVSIAVAWYQQKPGKAPKLLIYSASYRYTGVPDRFSGSGSGTDFTLTISSLQPEDFAVYYCQQHYITPLTFGAGTKVEIKR
notes: also called TBD-22 (HC D109A mutant)
Q: Which “Fold shift in EC50 relative to wt” value [3] does the source give for B7 here?
A: 5.5 fold

Q: And the EC50 [4]?
A: 1.1 nM

Q: What about the “t1/2” value [5] of the same binder?
A: 33 min

Q: And the Kd [6]?
A: 2.35 nM

Q: And the EC50 [7]?
A: 1.1 nM

B8: TCE-34 (anti-CD3 scFv P41S, A49G, N87S, L150F, T151S, G163R, P175A, K181T, T200V, A202D, L208I, G211N, L217I, S218T, V220A, P222A, E223D, A226S, E227D; … (bispecific antibody)
light: DIQLTQSPSSLSASVGDRVSITCKASQDVSIAVAWYQQKPGKAPKLLIYSASYRYTGVPDRFSGSGSGTDFTLTISSLQPEDFAVYYCQQHYITPLTFGAGTKVEIKRTVAAPSVFIFPPSDEQLKSGTASVVCLLNNFYPREAKVQWKVDNALQSGNSQESVTEQDSKDSTYSLSSTLTLSKADYEKHKVYACEVTHQGLSSPVTKSFNRGEC
heavy: EVQLVESGGGLVQPGGSLKLSCAASGFTFNKYAMNWVRQASGKGLEWVGRIRSKYNNYATYYADSVKDRFTISRDDSKNTAYLQMNSLKTEDTAVYYCVRHGNFGNSYISYWAYWGQGTLVTVSSGGGGSGGGGSGGGGSQTVVTQEPSFSVSPGGTVTLTCRSSTGAVTSGNYANWVQQTPGQAPRGLIGGTKFLAPGVPDRFSGSILGNKAALTITGAQADDESDYYCVLWYSNRWVFGGGTKLTVLGGGGSQVQLQQSGSELKKPGASVKVSCKASGYTFTNYGMNWVKQAPGQGLKWMGWINTYTGEPTYTDDFKGRFAFSLDTSVSTAYLQISSLKADDTAVYFCARGGFGSSYWYFDVWGQGSLVTVSSASTKGPSVFPLAPSSKSTSGGTAALGCLVKDYFPEPVTVSWNSGALTSGVHTFPAVLQSSGLYSLSSVVTVPSSSLGTQTYICNVNHKPSNTKVDKKVEPKSC
notes: scFv on the Fab heavy chain
Q: What does the source list for B8?
A: EC50 (Peptide-68): 0.41 nM; EC50 (Peptide-69): 0.31 nM; EC50 (Peptide-70): 0.29 nM; EC50 (Peptide-71): 0.32 nM

B9: PC-13 (bispecific antibody)
light: not shown
heavy: GGVDFCGLYHWPICYQGGGGSGGLSGRSDAGSPLGLAGSGGSQVQLQQSGSELKKPGASVKVSCKASGYTFTNYGMNWVKQAPGQGLKWMGWINTYTGEPTYTDDFKGRFAFSLDTSVSTAYLQISSLKADDTAVYFCAAGGFGSSYWYFDVWGQGSLVTVSSASTKGPSVFPLAPSSKSTSGGTAALGCLVKDYFPEPVTVSWNSGALTSGVHTFPAVLQSSGLYSLSSVVTVPSSSLGTQTYICNVNHKPSNTKVDKKVEPKSC
notes: anti-TROP2 R98A
Q: What does the source list for B9?
A: EC50 [1]: 419 nM; EC50 [2]: > 1000 nM

B10: PC-23 (bispecific antibody)
light: not shown
heavy: GGVDFCGLYHWPICYQVGGGSGGLSGRSDAGSPLGLAGSGGSQVQLQQSGSELKKPGASVKVSCKASGYTFTNYGMNWVKQAPGQGLKWMGWINTYTGEPTYTDDFKGRFAFSLDTSVSTAYLQISSLKADDTAVYFCAAGGFGSSYWYFDVWGQGSLVTVSSASTKGPSVFPLAPSSKSTSGGTAALGCLVKDYFPEPVTVSWNSGALTSGVHTFPAVLQSSGLYSLSSVVTVPSSSLGTQTYICNVNHKPSNTKVDKKVEPKSC
notes: anti-TROP2 R98A
Q: Which EC50 [2] does the source give for B10 here?
A: > 1000 nM

B11: PC-19 (bispecific antibody)
light: not shown
heavy: GGVDFCALYHWPICYQGGGGSGGLSGRSDAGSPLGLAGSGGSQVQLQQSGSELKKPGASVKVSCKASGYTFTNYGMNWVKQAPGQGLKWMGWINTYTGEPTYTDDFKGRFAFSLDTSVSTAYLQISSLKADDTAVYFCARGGFGSSYWYADVWGQGSLVTVSSASTKGPSVFPLAPSSKSTSGGTAALGCLVKDYFPEPVTVSWNSGALTSGVHTFPAVLQSSGLYSLSSVVTVPSSSLGTQTYICNVNHKPSNTKVDKKVEPKSC
notes: anti-TROP2 F108A
Q: With B11 as the binder, how does the EC50 [2] read?
A: > 1000 nM

From patent US20230357429A1 (JANUX THERAPEUTICS, published 2023)
